Experimental data: US20260276625A1, “SCREENING METHOD FOR COMPOUND INDUCING AUTOPHAGY” (TOHOKU UNIVERSITY, priority 2023, published 2026)

Assays:
[1] = molecular target: LgBiT-p62 (p62 fused at its N-terminus to the Large BiT luciferase fragment; expressed from pLgBiT-p62) (not stated (cDNA from total RNA of HeLa cells)) (UniProt Q13501); assay: NanoBiT split-luciferase complementation in HeLa cells co-transfected with pLgBiT-p62 and pSmBiT-DDX5; told of each of compounds 5 to 33 at 10 uM, 24 h
[2] = molecular target: LgBiT-p62 (p62 fused at its N-terminus to the Large BiT luciferase fragment; expressed from pLgBiT-p62) (not stated (cDNA from total RNA of HeLa cells)) (UniProt Q13501); assay: NanoBiT split-luciferase complementation in HeLa cells co-transfected with pLgBiT-p62 and pSmBiT-DDX5, treated with 10 uM of compounds 5 to 33 or AUTAC2-2G; read 10 min after start of measurement (FIG. 2)
[3] = molecular target: LgBiT-p62 (p62 fused at its N-terminus to the Large BiT luciferase fragment; expressed from pLgBiT-p62) (not stated (cDNA from total RNA of HeLa cells)) (UniProt Q13501); assay: NanoBiT split-luciferase complementation in HeLa cells co-transfected with pLgBiT-p62 and pSmBiT-DDX5; told of each of AUTAC2-2G, AUTAC4-2G, 8-nitro-cGMP and FBnG at 10 uM
[4] = molecular target: LgBiT-p62 (p62 fused at its N-terminus to the Large BiT luciferase fragment; expressed from pLgBiT-p62) (not stated (cDNA from total RNA of HeLa cells)) (UniProt Q13501); assay: NanoBiT split-luciferase complementation in HeLa cells co-transfected with pLgBiT-p62 and pSmBiT-DDX5, treated with 10 uM AUTAC2-2G, AUTAC4-2G, 8-nitro-cGMP or FBnG; read 10 min after start of measurement (FIG. 1)

Work on “SmBiT-DDX5 (DDX5, DEAD box protein 5, fused at its N-terminus to the Small BiT luciferase fragment; expressed from pSmBiT-DDX5) (from UniProt P17844 1-614)” yielded an emission intensity, fold over cells treated with DMSO (times (vs DMSO-treated cells)) [1] greater than 1000, an emission intensity (NanoBiT luminescence) [2] greater than 1e+07 and an emission intensity, fold over cells treated with DMSO (times (vs DMSO-treated cells)) [3] greater than 1000. For the same substance, the emission intensity (NanoBiT luminescence) [4] was 1e+07.
